In patent publication US9029508 (dated 2015):

Biological target: DLL4 (human, UniProt Q9NR61)
Assay: ELISA

Chain of DLL4 (Q9NR61 27-524): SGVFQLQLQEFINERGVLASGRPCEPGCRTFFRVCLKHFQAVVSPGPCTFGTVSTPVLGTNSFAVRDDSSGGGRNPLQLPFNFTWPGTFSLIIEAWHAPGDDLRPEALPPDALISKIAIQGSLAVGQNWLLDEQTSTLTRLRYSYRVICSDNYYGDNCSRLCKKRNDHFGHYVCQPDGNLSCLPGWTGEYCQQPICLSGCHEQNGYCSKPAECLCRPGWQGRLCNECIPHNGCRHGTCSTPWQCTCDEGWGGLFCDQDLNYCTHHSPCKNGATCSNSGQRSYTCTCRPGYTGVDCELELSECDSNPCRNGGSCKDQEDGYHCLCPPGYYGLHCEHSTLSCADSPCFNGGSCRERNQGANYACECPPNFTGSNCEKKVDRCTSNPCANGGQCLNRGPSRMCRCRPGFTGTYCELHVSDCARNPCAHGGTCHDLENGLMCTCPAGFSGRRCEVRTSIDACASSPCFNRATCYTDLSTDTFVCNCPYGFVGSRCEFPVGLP

| Binder | EC50 [nM] |
| --- | --- |
| DVD495 DLL4 arm (antibody, V domains shown, DVD-Ig outer) VH: EVQLQQSGPELVKPGASVKMSCKASGYTFTSYVINWVKQKPGQGLEWIGLINPYNDGTKYNEKFKVKATLTSDKSSSTAYMELSSLTSEDSAVYYCASYYYGSRYYFDYWGQGTTLTVSS VL: DIQMTQSSSYLSVSLGGRVTITCKASDHINNWLAWYQQKPGNAPRLLISGATSLETGVPSRFSGSGSGKDYTLSITSLQTEDVATYYCQQYWSIPLTFGAGTKLELKR | 0.33 |
| DVD473 DLL4 arm (antibody, DVD-Ig outer) chain 1: EVQLVESGGGLVQPGGSLRLSCAASGFTFTDNWISWVRQAPGKGLEWVGYISPNSGFTYYADSVKGRFTISADTSKNTAYLQMNSLRAEDTAVYYCARDNFGGYFDYWGQGTLVTVSS chain 2: DIQMTQSPSSLSASVGDRVTITCRASQDVSTAVAWYQQKPGKAPKLLIYSASFLYSGVPSRFSGSGSGTDFTLTISSLQPEDFATTYYCQQSYTGTVTFGQGTKVEIKR | 1.8 |
| DVD475 DLL4 arm (antibody, DVD-Ig outer) chain 1: EVQLVESGGGLVQPGGSLRLSCAASGFTFTDNWISWVRQAPGKGLEWVGYISPNSGFTYYADSVKGRFTISADTSKNTAYLQMNSLRAEDTAVYYCARDNFGGYFDYWGQGTLVTVSS chain 2: DIQMTQSPSSLSASVGDRVTITCRASQDVSTAVAWYQQKPGKAPKLLIYSASFLYSGVPSRFSGSGSGTDFTLTISSLQPEDFATTYYCQQSYTGTVTFGQGTKVEIKR | 0.23 |
| DVD446 DLL4 arm (antibody, V domains shown, DVD-Ig inner) VH: QVQLVQSGAEVKKPGASVKISCKASGYSFTAYYIHWVKQAPGQGLEWIGYISSYNGATNYNQKFKGRVTFTTDTSTSTAYMELRSLRSDDTAVYYCARDYDYDVGMDYWGQGTLVTVSS VL: DIVMTQSPDSLAVSLGERATISCRASESVDNYGISFMKWFQQKPGQPPKLLIYAASNQGSGVPDRFSGSGSGTDFTLTISSLQAEDVAVYYCQQSKEVPWTFGGGTKVEIKR | 13.9 |

Other lines, results leading:

| EC50 [nM] | Binder |
| --- | --- |
| 0.61 | DVD508 DLL4 arm (antibody, V domains shown, DVD-Ig inner) VH: EVQLQQSGPELVKPGASVKMSCKASGYTFTSYVINWVKQKPGQGLEWIGLINPYNDGTKYNEKFKVKATLTSDKSSSTAYMELSSLTSEDSAVYYCASYYYGSRYYFDYWGQGTTLTVSS VL: DIQMTQSSSYLSVSLGGRVTITCKASDHINNWLAWYQQKPGNAPRLLISGATSLETGVPSRFSGSGSGKDYTLSITSLQTEDVATYYCQQYWSIPLTFGAGTKLELKR |
| 0.71 | DVD507 DLL4 arm (antibody, V domains shown, DVD-Ig outer) VH: EVQLQQSGPELVKPGASVKMSCKASGYTFTSYVINWVKQKPGQGLEWIGLINPYNDGTKYNEKFKVKATLTSDKSSSTAYMELSSLTSEDSAVYYCASYYYGSRYYFDYWGQGTTLTVSS VL: DIQMTQSSSYLSVSLGGRVTITCKASDHINNWLAWYQQKPGNAPRLLISGATSLETGVPSRFSGSGSGKDYTLSITSLQTEDVATYYCQQYWSIPLTFGAGTKLELKR |
| 17.3 | DVD520 DLL4 arm (antibody, V domains shown, DVD-Ig inner) VH: EVQLQQSGPELEKPGASVKISCKASGYSFTGYNMNWVKQSNGKSLEWIGNIDPYFGGTNYNQKFKGKATLTVDKSSSTAYMQLKSLTSEDSAVYYCARNYDYDGGCFDYWGQGTTLTVSS VL: QAVVTQESALTTSPGETVTLTCRSSTGAVTTSNYANWVQEKPDHLFTGLIGGTNNRAPGVPARFSGSLIGDKAALTITGAQTEDEAIYFCALWYSNHWVFGGGTKLTVLG |
| 0.66 | DVD513 DLL4 arm (antibody, V domains shown, DVD-Ig outer) VH: EVQLQQSGPELEKPGASVKISCKASGYSFTGYNMNWVKQSNGKSLEWIGNIDPYFGGTNYNQKFKGKATLTVDKSSSTAYMQLKSLTSEDSAVYYCARNYDYDGGCFDYWGQGTTLTVSS VL: QAVVTQESALTTSPGETVTLTCRSSTGAVTTSNYANWVQEKPDHLFTGLIGGTNNRAPGVPARFSGSLIGDKAALTITGAQTEDEAIYFCALWYSNHWVFGGGTKLTVLG |
| 0.48 | DVD522 DLL4 arm (antibody, V domains shown, DVD-Ig inner) VH: EVQLQQSGPELEKPGASVKISCKASGYSFTGYNMNWVKQSNGKSLEWIGNIDPYFGGTNYNQKFKGKATLTVDKSSSTAYMQLKSLTSEDSAVYYCARNYDYDGGCFDYWGQGTTLTVSS VL: QAVVTQESALTTSPGETVTLTCRSSTGAVTTSNYANWVQEKPDHLFTGLIGGTNNRAPGVPARFSGSLIGDKAALTITGAQTEDEAIYFCALWYSNHWVFGGGTKLTVLG |
